Measurements: publication PMC9482650, “Quantitative fragmentomics allow affinity mapping of interactomes” (Nature Communications, 2022)

B1: CES3, Q6UWW8 (peptide)
chain: QKNRKAQEDL

The binders below were run against MAGI1_1, Q96QZ7 (assay: holdup assay). Conditions: plain residues with an end cap or a label only (N-terminal biotin on a linker: ado-ado).
Design: key: below the threshold = too weak to quantify, mostly under pKd 3.1 to 4

MAGI1_1, Q96QZ7, sequence (Q96QZ7 1-106): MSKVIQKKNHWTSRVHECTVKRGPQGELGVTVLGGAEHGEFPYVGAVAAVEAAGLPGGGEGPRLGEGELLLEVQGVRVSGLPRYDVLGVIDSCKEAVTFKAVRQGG

Row | Binder | pKd
1 | B1 | below the threshold

Each binder was assayed against Inadl_1, Q8NI35 (assay: holdup assay). Conditions: plain residues with an end cap or a label only (N-terminal biotin on a linker: ado-ado).
Inadl_1, Q8NI35, sequence (Q8NI35 113-229): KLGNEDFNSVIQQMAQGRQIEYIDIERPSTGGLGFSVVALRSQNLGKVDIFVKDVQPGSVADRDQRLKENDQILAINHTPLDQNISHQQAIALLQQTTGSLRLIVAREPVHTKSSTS
Design: key: below the threshold = too weak to quantify, mostly under pKd 3.1 to 4

Row | Binder | pKd
2 | B1 | below the threshold

These binders were tested against GORASP1, Q9BQQ3 (assay: holdup assay). Conditions: plain residues with an end cap or a label only (N-terminal biotin on a linker: ado-ado).
GORASP1, Q9BQQ3, sequence (Q9BQQ3 1-208): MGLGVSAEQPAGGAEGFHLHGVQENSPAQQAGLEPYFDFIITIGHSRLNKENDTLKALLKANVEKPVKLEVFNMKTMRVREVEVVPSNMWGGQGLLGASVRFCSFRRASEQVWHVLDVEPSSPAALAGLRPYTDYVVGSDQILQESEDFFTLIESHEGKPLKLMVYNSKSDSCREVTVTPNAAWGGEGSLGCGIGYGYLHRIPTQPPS
Design: key: below the threshold = too weak to quantify, mostly under pKd 3.1 to 4

Row | Binder | pKd
3 | B1 | below the threshold

The binders below were run against SNX27, Q96L92 (assay: holdup assay). Conditions: plain residues with an end cap or a label only (N-terminal biotin on a linker: ado-ado).
Design: key: below the threshold = too weak to quantify, mostly under pKd 3.1 to 4

Row | Binder | pKd
4 | B1 | below the threshold

These binders were tested against SCRIB_3, Q14160 (assay: holdup assay). Conditions: plain residues with an end cap or a label only (N-terminal biotin on a linker: ado-ado).
SCRIB_3, Q14160, sequence (Q14160 999-1103): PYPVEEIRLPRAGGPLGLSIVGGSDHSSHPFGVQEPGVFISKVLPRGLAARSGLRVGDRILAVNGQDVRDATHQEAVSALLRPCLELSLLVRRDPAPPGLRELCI
Design: key: below the threshold = too weak to quantify, mostly under pKd 3.1 to 4

Row | Binder | pKd
5 | B1 | below the threshold

What follows are binders tested against IL16_4, Q14005 (assay: holdup assay). Conditions: plain residues with an end cap or a label only (N-terminal biotin on a linker: ado-ado).
IL16_4, Q14005, sequence (Q14005 1229-1329): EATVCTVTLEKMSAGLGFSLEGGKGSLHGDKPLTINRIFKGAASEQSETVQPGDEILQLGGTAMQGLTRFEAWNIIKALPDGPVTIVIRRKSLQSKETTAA
Design: key: below the threshold = too weak to quantify, mostly under pKd 3.1 to 4

Row | Binder | pKd
6 | B1 | 3.63

Each binder was assayed against PDZRN4_1, Q6ZMN7 (assay: holdup assay). Conditions: plain residues with an end cap or a label only (N-terminal biotin on a linker: ado-ado).
PDZRN4_1, Q6ZMN7, sequence (Q6ZMN7 213-318): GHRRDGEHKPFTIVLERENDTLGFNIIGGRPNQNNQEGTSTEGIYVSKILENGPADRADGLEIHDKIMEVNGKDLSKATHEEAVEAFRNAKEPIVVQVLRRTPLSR
Design: key: below the threshold = too weak to quantify, mostly under pKd 3.1 to 4

Row | Binder | pKd
7 | B1 | below the threshold

Each binder was assayed against T1, SNTB1, Q13884 (assay: holdup assay). Conditions: plain residues with an end cap or a label only (N-terminal biotin on a linker: ado-ado).
T1 sequence (Q13884 107-205, limits assumed, looked up): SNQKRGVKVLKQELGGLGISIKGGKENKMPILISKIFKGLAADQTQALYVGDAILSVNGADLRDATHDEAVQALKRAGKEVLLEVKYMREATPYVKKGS
Design: key: below the threshold = too weak to quantify, mostly under pKd 3.1 to 4

Row | Binder | pKd
8 | B1 | below the threshold

These binders were tested against LNX1_3, Q8TBB1 (assay: holdup assay). Conditions: plain residues with an end cap or a label only (N-terminal biotin on a linker: ado-ado).
LNX1_3, Q8TBB1, sequence (Q8TBB1 500-596): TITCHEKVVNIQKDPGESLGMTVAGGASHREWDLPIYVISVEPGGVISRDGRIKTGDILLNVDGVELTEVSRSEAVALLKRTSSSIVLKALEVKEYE
Design: key: below the threshold = too weak to quantify, mostly under pKd 3.1 to 4

Row | Binder | pKd
9 | B1 | below the threshold

What follows are binders tested against DLG4_2, P78352 (assay: holdup assay). Conditions: plain residues with an end cap or a label only (N-terminal biotin on a linker: ado-ado).
DLG4_2, P78352, sequence (P78352 155-259): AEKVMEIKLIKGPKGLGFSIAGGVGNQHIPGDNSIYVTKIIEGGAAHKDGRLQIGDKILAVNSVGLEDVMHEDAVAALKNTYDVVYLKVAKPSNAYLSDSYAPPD
Design: key: below the threshold = too weak to quantify, mostly under pKd 3.1 to 4

Row | Binder | pKd
10 | B1 | below the threshold

What follows are binders tested against T2, GRIP1_3, Q9Y3R0 (assay: holdup assay). Conditions: plain residues with an end cap or a label only (N-terminal biotin on a linker: ado-ado).
T2 sequence (Q9Y3R0 247-346, limits assumed, looked up): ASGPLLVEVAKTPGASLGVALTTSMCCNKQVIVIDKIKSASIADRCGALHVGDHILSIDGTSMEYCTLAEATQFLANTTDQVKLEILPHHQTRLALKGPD
Design: key: below the threshold = too weak to quantify, mostly under pKd 3.1 to 4

Row | Binder | pKd
11 | B1 | below the threshold

What follows are binders tested against DLG4_3, P78352 (assay: holdup assay). Conditions: plain residues with an end cap or a label only (N-terminal biotin on a linker: ado-ado).
DLG4_3, P78352, sequence (P78352 306-403): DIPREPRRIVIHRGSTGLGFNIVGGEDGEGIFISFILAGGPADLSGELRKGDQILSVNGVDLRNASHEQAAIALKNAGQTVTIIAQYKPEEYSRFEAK
Design: key: below the threshold = too weak to quantify, mostly under pKd 3.1 to 4

Row | Binder | pKd
12 | B1 | below the threshold

These binders were tested against FRMPD4, Q14CM0 (assay: holdup assay). Conditions: plain residues with an end cap or a label only (N-terminal biotin on a linker: ado-ado).
FRMPD4, Q14CM0, sequence (Q14CM0 67-160): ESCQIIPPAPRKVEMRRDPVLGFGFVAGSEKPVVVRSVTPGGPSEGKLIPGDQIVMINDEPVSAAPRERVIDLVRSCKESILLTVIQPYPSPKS
Design: key: below the threshold = too weak to quantify, mostly under pKd 3.1 to 4

Row | Binder | pKd
13 | B1 | below the threshold

These binders were tested against SCRIB_2, Q14160 (assay: holdup assay). Conditions: plain residues with an end cap or a label only (N-terminal biotin on a linker: ado-ado).
SCRIB_2, Q14160, sequence (Q14160 857-960): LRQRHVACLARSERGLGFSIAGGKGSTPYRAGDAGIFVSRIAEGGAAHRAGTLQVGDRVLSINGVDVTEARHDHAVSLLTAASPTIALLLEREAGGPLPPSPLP
Design: key: below the threshold = too weak to quantify, mostly under pKd 3.1 to 4

Row | Binder | pKd
14 | B1 | below the threshold

What follows are binders tested against T3, PDZRN3_1, Q9UPQ7 (assay: holdup assay). Conditions: plain residues with an end cap or a label only (N-terminal biotin on a linker: ado-ado).
T3 sequence (Q9UPQ7 244-349, limits assumed, looked up): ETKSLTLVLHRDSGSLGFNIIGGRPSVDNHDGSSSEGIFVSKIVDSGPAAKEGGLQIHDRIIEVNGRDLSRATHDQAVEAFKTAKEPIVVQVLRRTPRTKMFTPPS
Design: key: below the threshold = too weak to quantify, mostly under pKd 3.1 to 4

Row | Binder | pKd
15 | B1 | below the threshold

The binders below were run against CASK, O14936 (assay: holdup assay). Conditions: plain residues with an end cap or a label only (N-terminal biotin on a linker: ado-ado).
CASK, O14936, sequence (O14936 487-570): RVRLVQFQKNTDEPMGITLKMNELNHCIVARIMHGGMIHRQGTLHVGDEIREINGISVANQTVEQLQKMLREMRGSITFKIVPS
Design: key: below the threshold = too weak to quantify, mostly under pKd 3.1 to 4

Row | Binder | pKd
16 | B1 | below the threshold

The binders below were run against MAGI2_6, Q86UL8 (assay: holdup assay). Conditions: plain residues with an end cap or a label only (N-terminal biotin on a linker: ado-ado).
MAGI2_6, Q86UL8, sequence (Q86UL8 1141-1229): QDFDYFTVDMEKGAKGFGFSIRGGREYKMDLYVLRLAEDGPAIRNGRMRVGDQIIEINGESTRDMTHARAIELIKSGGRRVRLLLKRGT
Design: key: below the threshold = too weak to quantify, mostly under pKd 3.1 to 4

Row | Binder | pKd
17 | B1 | below the threshold

The binders below were run against GRIP2_4, Q9C0E4 (assay: holdup assay). Conditions: plain residues with an end cap or a label only (N-terminal biotin on a linker: ado-ado).
GRIP2_4, Q9C0E4, sequence (Q9C0E4 446-548): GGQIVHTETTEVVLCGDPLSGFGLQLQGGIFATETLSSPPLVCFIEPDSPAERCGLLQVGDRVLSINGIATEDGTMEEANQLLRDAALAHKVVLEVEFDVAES
Design: key: below the threshold = too weak to quantify, mostly under pKd 3.1 to 4

Row | Binder | pKd
18 | B1 | below the threshold

Each binder was assayed against FRMPD3, Q5JV73 (assay: holdup assay). Conditions: plain residues with an end cap or a label only (N-terminal biotin on a linker: ado-ado).
FRMPD3, Q5JV73, sequence (Q5JV73 12-100): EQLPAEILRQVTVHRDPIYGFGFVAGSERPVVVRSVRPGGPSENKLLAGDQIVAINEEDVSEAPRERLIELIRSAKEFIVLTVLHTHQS
Design: key: below the threshold = too weak to quantify, mostly under pKd 3.1 to 4

Row | Binder | pKd
19 | B1 | below the threshold

The binders below were run against MAGI2_5, Q86UL8 (assay: holdup assay). Conditions: plain residues with an end cap or a label only (N-terminal biotin on a linker: ado-ado).
MAGI2_5, Q86UL8, sequence (Q86UL8 915-1017): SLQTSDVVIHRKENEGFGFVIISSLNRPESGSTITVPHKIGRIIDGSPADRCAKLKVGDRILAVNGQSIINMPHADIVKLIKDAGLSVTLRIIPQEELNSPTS
Design: key: below the threshold = too weak to quantify, mostly under pKd 3.1 to 4

Row | Binder | pKd
20 | B1 | below the threshold

What follows are binders tested against LNX1_2, Q8TBB1 (assay: holdup assay). Conditions: plain residues with an end cap or a label only (N-terminal biotin on a linker: ado-ado).
LNX1_2, Q8TBB1, sequence (Q8TBB1 371-470): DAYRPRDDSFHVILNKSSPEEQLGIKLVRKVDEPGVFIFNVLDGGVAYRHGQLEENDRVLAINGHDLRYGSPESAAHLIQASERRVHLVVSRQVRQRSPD
Design: key: below the threshold = too weak to quantify, mostly under pKd 3.1 to 4

Row | Binder | pKd
21 | B1 | below the threshold

These binders were tested against MAGI1_2, Q96QZ7 (assay: holdup assay). Conditions: plain residues with an end cap or a label only (N-terminal biotin on a linker: ado-ado).
MAGI1_2, Q96QZ7, sequence (Q96QZ7 456-580): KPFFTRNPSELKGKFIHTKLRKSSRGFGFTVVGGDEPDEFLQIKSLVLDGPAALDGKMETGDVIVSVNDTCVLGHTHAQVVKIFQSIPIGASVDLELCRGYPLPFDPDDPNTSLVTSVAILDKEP
Design: key: below the threshold = too weak to quantify, mostly under pKd 3.1 to 4

Row | Binder | pKd
22 | B1 | below the threshold

The binders below were run against GRIP2_7, Q9C0E4 (assay: holdup assay). Conditions: plain residues with an end cap or a label only (N-terminal biotin on a linker: ado-ado).
GRIP2_7, Q9C0E4, sequence (Q9C0E4 934-1023): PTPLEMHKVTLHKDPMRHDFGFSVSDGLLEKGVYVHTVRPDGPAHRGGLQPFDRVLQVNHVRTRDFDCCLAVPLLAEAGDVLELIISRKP
Design: key: below the threshold = too weak to quantify, mostly under pKd 3.1 to 4

Row | Binder | pKd
23 | B1 | below the threshold

What follows are binders tested against Inadl_6, Q8NI35 (assay: holdup assay). Conditions: plain residues with an end cap or a label only (N-terminal biotin on a linker: ado-ado).
Inadl_6, Q8NI35, sequence (Q8NI35 1058-1167): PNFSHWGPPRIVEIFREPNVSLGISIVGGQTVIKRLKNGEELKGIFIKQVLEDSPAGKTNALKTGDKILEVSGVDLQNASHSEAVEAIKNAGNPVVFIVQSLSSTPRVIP
Design: key: below the threshold = too weak to quantify, mostly under pKd 3.1 to 4

Row | Binder | pKd
24 | B1 | below the threshold

The binders below were run against T4, RADIL, Q96JH8 (assay: holdup assay). Conditions: plain residues with an end cap or a label only (N-terminal biotin on a linker: ado-ado).
T4 sequence (Q96JH8 971-1071, limits assumed, looked up): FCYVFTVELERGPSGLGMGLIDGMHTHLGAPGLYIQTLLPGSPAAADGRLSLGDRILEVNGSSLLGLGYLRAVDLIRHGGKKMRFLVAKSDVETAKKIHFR
Design: key: below the threshold = too weak to quantify, mostly under pKd 3.1 to 4

Row | Binder | pKd
25 | B1 | below the threshold

Each binder was assayed against T5, APBA2_2, Q99767 (assay: holdup assay). Conditions: plain residues with an end cap or a label only (N-terminal biotin on a linker: ado-ado).
T5 sequence (Q99767 654-744, limits assumed, looked up): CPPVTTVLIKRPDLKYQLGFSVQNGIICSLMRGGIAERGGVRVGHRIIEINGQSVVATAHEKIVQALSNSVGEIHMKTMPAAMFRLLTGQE
Design: key: below the threshold = too weak to quantify, mostly under pKd 3.1 to 4

Row | Binder | pKd
26 | B1 | below the threshold

The binders below were run against T6, TX1BP3, O14907 (assay: holdup assay). Conditions: plain residues with an end cap or a label only (N-terminal biotin on a linker: ado-ado).
T6 sequence (O14907 10-122, limits assumed, looked up): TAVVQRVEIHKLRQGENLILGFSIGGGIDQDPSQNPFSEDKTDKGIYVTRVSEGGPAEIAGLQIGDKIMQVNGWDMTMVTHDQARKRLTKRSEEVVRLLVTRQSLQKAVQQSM
Design: key: below the threshold = too weak to quantify, mostly under pKd 3.1 to 4

Row | Binder | pKd
27 | B1 | below the threshold

Each binder was assayed against T7, GRIP1_5, Q9Y3R0 (assay: holdup assay). Conditions: plain residues with an end cap or a label only (N-terminal biotin on a linker: ado-ado).
T7 sequence (Q9Y3R0 568-668, limits assumed, looked up): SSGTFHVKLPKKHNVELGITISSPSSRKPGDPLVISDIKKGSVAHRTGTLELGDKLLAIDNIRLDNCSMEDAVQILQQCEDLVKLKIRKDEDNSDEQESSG
Design: key: below the threshold = too weak to quantify, mostly under pKd 3.1 to 4

Row | Binder | pKd
28 | B1 | below the threshold

These binders were tested against PICK1, Q9NRD5 (assay: holdup assay). Conditions: plain residues with an end cap or a label only (N-terminal biotin on a linker: ado-ado).
PICK1, Q9NRD5, sequence (Q9NRD5 17-115): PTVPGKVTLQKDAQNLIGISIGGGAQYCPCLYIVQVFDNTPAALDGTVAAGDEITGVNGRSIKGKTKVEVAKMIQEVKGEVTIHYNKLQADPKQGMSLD
Design: key: below the threshold = too weak to quantify, mostly under pKd 3.1 to 4

Row | Binder | pKd
29 | B1 | 4

What follows are binders tested against LNX1_1, Q8TBB1 (assay: holdup assay). Conditions: plain residues with an end cap or a label only (N-terminal biotin on a linker: ado-ado).
LNX1_1, Q8TBB1, sequence (Q8TBB1 261-371): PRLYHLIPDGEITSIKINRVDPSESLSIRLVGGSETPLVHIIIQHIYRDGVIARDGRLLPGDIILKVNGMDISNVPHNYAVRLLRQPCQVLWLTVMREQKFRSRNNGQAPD
Design: key: below the threshold = too weak to quantify, mostly under pKd 3.1 to 4

Row | Binder | pKd
30 | B1 | below the threshold
